The values below are quoted from earlier work in patent publication US20230149374A1, “METHODS AND COMPOSITIONS FOR TREATING ATHEROSCLEROSIS” (Sanford Burnham Prebys Medical Discovery Institute, priority 2021, published 2023).

The series relates to patient with TNAP deficiency. The conditions noted are these: administration for 8 months, very high blood TNAP activity; cited from earlier work.

B1: recombinant TNAP: recombinant TNAP administered for 8 months in a patient with TNAP deficiency (protein, UniProt P05186 18-501, looked up)
Alkaline phosphatase, …: LVPEKEKDPKYWRDQAQETLKYALELQKLNTNVAKNVIMFLGDGMGVSTVTAARILKGQLHHNPGEETRLEMDKFPFVALSKTYNTNAQVPDSAGTATAYLCGVKANEGTVGVSAATERSRCNTTQGNEVTSILRWAKDAGKSVGIVTTTRVNHATPSAAYAHSADRDWYSDNEMPPEALSQGCKDIAYQLMHNIRDIDVIMGGGRKYMYPKNKTDVEYESDEKARGTRLDGLDLVDTWKSFKPRYKHSHFIWNRTELLTLDPHNVDYLLGLFEPGDMQYELNRNNVTDPSLSEMVVVAIQILRKNPKGFFLLVEGGRIDHGHHEGKAKQALHEAVEMDRAIGQAGSLTSSEDTLTVVTADHSHVFTFGGYTPRGNSIFGLAPMLSDTDKKPFTAILYGNGPGYKVVGGERENVSMVDYAHNNYQAQSAVPLRHETHGGEDVAVFSKGPMAHLLHGVHEQNYVPHVMAYAACIGANLGHCAPAS
In the case of B1, the vascular calcium score entry is “did not increase”.
